The target in this assay is SARS-CoV-2 Spike protein on pseudovirus (wild type) (SARS-CoV-2) (UniProt P0DTC2). Nature of the assay: cell-based or functional assay.

The substance “ACE2-Ig (positive control of the pseudovirus neutralization assay) (Fc fusion)” showed an IC50, pseudovirus neutralization of 0.9 µg/mL.

(Values after patent US20230212267A1.)
